These results are taken from patent publication US20110178027A1 (published 2011).

Where two headings read alike, the source gives them in different places. No end group written: not given here.

One assay deals with T1, PC1/3 (UniProt P29120 111-753).
T1 chain: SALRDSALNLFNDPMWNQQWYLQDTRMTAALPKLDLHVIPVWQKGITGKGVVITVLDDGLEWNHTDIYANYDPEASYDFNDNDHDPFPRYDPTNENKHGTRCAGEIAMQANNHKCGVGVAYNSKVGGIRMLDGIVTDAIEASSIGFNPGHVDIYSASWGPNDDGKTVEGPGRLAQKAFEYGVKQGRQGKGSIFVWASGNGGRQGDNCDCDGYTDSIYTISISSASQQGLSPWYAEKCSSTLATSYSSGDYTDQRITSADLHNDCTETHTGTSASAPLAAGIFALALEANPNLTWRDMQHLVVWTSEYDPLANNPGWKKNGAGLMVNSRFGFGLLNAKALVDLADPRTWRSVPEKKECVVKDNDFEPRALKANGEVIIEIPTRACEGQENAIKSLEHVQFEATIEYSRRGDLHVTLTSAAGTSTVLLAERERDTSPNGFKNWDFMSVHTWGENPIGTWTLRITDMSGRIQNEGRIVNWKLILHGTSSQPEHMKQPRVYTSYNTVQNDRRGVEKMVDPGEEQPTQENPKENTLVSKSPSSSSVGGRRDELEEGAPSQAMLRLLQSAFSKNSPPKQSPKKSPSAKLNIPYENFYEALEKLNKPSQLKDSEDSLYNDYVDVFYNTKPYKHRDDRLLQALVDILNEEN
Description: enzyme inhibition.

The target in another assay is T2, PACE4 (UniProt P29122 150-969).
T2 chain: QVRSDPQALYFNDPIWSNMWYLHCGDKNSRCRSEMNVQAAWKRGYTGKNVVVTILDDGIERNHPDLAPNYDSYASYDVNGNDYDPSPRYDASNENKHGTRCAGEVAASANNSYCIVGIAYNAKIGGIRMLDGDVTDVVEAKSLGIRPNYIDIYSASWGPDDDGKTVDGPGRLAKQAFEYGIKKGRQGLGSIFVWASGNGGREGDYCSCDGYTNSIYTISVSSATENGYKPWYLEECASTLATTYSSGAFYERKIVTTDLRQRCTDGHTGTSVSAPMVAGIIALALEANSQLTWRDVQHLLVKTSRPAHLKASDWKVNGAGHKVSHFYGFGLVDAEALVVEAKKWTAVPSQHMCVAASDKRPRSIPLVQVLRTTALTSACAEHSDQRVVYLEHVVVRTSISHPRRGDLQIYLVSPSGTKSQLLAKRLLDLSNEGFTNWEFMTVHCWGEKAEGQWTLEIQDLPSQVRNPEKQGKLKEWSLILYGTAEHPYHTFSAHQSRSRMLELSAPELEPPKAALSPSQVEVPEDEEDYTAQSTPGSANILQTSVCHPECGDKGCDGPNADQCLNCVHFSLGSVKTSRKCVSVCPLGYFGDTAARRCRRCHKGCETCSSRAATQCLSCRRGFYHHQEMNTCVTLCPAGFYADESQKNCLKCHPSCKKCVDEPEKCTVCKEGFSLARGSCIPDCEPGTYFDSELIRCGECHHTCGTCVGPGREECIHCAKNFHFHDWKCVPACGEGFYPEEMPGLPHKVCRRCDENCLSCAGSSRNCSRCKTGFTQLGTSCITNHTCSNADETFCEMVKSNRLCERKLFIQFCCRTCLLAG
Briefly: enzyme inhibition.

The target of assay [1] is T3, furin (UniProt P09958 108-715). Briefly: enzyme inhibition.
A further assay has as its target T4, PC5/6 (UniProt Q92824 115-913).
T4 chain: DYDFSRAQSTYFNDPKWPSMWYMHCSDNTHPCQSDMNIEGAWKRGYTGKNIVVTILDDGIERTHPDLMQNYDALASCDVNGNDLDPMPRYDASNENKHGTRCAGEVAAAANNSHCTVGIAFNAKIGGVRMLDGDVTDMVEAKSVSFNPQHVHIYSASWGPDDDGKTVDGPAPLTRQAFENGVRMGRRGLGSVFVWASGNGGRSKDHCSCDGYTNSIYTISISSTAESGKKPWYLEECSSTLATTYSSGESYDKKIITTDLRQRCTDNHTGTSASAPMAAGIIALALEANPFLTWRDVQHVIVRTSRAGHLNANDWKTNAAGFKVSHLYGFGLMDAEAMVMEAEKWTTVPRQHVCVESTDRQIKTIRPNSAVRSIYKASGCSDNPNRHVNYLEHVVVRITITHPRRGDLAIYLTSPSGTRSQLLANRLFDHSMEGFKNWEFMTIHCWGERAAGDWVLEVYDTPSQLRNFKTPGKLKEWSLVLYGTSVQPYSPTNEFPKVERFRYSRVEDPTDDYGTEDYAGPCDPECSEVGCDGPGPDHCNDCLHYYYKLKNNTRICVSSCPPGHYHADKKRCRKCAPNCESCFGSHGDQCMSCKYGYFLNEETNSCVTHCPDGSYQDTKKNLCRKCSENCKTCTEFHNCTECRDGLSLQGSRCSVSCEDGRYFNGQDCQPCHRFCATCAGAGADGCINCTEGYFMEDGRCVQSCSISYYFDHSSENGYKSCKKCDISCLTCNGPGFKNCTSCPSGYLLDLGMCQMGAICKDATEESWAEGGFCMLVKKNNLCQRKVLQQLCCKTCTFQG
Description: enzyme inhibition.

The target in another assay is T5, PC7 (UniProt Q16549 142-667).
T5 chain: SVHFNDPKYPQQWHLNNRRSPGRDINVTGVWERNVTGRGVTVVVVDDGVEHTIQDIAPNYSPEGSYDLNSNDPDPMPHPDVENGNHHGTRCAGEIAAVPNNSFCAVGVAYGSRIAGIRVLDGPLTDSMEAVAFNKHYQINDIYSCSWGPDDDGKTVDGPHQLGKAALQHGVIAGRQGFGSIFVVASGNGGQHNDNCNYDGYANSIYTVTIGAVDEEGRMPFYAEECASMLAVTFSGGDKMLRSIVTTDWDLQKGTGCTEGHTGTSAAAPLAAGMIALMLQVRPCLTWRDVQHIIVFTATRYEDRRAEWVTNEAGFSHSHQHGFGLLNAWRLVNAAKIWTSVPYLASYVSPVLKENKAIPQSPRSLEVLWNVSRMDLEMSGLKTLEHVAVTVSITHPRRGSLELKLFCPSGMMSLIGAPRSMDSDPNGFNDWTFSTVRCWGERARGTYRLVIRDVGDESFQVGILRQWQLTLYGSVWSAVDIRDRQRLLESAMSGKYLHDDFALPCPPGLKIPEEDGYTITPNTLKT
Briefly: enzyme inhibition.

The next assay deals with T6, PC2 (UniProt P16519 110-638).
T6 chain: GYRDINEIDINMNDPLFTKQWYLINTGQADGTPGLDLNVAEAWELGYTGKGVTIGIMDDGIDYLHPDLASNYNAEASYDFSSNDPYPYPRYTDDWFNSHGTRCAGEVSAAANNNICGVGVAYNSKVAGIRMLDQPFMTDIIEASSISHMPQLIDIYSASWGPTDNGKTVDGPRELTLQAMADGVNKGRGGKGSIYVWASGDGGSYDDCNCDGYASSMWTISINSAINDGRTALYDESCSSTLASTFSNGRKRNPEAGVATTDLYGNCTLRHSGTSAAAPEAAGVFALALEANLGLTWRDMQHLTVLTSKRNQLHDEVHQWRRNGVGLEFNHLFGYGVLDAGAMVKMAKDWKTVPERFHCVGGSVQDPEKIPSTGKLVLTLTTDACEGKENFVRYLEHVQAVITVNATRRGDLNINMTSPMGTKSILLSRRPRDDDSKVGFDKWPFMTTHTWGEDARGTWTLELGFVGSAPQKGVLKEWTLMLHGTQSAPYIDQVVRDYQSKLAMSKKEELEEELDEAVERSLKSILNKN
Briefly: enzyme inhibition.

In assay [2] the target is T3, furin.

What is called Ki is a measure of affinity in units of concentration, obtained from inhibition or displacement. A high value points to a looser hold on the target.

T3 sequence (P09958 108-715): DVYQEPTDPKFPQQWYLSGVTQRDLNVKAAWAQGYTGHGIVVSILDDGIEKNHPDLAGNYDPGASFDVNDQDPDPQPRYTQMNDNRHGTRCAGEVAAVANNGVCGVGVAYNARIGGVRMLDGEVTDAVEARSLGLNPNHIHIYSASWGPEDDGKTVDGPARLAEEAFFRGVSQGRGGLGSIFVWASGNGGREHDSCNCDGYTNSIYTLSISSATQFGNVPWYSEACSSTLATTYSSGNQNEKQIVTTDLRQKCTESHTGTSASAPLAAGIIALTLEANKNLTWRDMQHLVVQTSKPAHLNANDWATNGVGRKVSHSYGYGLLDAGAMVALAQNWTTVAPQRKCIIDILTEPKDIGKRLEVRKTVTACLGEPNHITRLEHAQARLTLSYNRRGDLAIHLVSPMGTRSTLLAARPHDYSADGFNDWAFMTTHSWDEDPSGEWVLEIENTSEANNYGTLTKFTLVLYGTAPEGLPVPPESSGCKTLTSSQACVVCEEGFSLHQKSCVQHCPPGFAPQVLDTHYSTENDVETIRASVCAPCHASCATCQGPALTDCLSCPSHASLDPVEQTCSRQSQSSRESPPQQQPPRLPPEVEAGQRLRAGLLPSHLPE

For RVKR-NH2 [RVKR-NH2], the Ki in the assay with PC1/3 was 1450 nM; with PACE4 it was 4340 nM; with furin [1] it was 8110 nM; with PC5/6, 5570 nM; with PC7, 10400 nM.
As to LRVKR-NH2 [LRVKR-NH2], the Ki was found to be 580 nM with PC1/3, 550 nM with furin [1], 360 nM with PC5/6 and 2490 nM with PC7.
Turning to LLLLLRVKR-NH2 [LLLLLRVKR-NH2], the Ki with PC1/3 stood at 370 nM; in the assay with furin [1] it was 1500 nM; in the assay with PC7, 40 nM; in the assay with PC2, 4830 nM.
On to LLLRVKR-NH2 [LLLRVKR-NH2], for which the Ki was 240 nM in the assay with PC1/3; 980 nM in the assay with furin [1]; 340 nM with PC5/6; 50 nM with PC7; 12900 nM with PC2.
For LLLLLLRVKR-NH2 [LLLLLLRVKR-NH2], the Ki was 1160 nM with PC1/3, 1390 nM with furin [1], 30 nM with PC7 and 4550 nM with PC2.
Take LLLLRVKR-NH2 [LLLLRVKR-NH2]: in the assay with furin [2], the Ki worked out at 1140 nM. That is a single-digit micromolar value.
As for LLRVKR-NH2 [LLRVKR-NH2], the Ki with furin [2] amounted to 540 nM; in the assay with PC1/3, 170 nM; in the assay with PC5/6 it was 130 nM; with PC7 it was 100 nM; in the assay with PC2, 3270 nM.
